Assay results published in patent US20060239990.

B1: mouse PRMT2 (untagged; endogenous in NIH3T3 cells, MEFs, GT1-7 cells and VSMC, or expressed from mouse PRMT2 cDNA in HEK293 cells) (protein)
chain: MEAPGEGPCSESQVIPVLEEDPVDYGCEMQLLQDGAQLQLQLQPEEFVAIADYTATDETQLSFLRGEKILILRQTTADWWWGERAGCCGYIPANHLGKQLEEYDPEDTWQDEEYFDSYGTLKLHLEMLADQPRTTKYHSVILQNKESLKDKVILDVGCGTGIISLFCAHHARPKAVYAVEASDMAQHTSQLVLQNGFADTITVFQQKVEDVVLPEKVDVLVSEWMGTCLLFEFMIESILYARDTWLKGDGIIWPTTAALHLVPCSAEKDYHSKVLFWDNAYEFNLSALKSLAIKEFFSRPKSNHILKPEDCLSEPCTILQLDMRTVQVPDLETMRGELRFDIQKAGTLHGFTAWFSVYFQSLEEGQPQQVVSTGPLHPTTHWKQTLFMMDDPVPVHTGDVVHGFCCVTKKSGMEKAHVCLSELGCHVRTRSHVSTELETGSFRSGGDS
B2: mouse PRMT2-Flag (FLAG-tagged full-length PRMT-2) (protein)
chain: B1 chain

Assays:
[1] = biological target: GST-Stat3 Arg31→Ala31 [GST: P08515]
Chain of GST-Stat3 Arg31→Ala31 [GST: P08515] (P08515 whole entry, looked up, the tested form may be a part): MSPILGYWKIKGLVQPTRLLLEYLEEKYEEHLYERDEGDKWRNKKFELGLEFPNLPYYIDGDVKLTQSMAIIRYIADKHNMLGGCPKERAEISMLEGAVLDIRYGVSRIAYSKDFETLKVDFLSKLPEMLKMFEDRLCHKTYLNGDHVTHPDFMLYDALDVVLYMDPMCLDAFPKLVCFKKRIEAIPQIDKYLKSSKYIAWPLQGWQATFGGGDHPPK

[2] = biological target: GST-Stat3 fusion protein, P42227
Chain of GST-Stat3 fusion protein, P42227 (P42227 whole entry, the tested form may be a part): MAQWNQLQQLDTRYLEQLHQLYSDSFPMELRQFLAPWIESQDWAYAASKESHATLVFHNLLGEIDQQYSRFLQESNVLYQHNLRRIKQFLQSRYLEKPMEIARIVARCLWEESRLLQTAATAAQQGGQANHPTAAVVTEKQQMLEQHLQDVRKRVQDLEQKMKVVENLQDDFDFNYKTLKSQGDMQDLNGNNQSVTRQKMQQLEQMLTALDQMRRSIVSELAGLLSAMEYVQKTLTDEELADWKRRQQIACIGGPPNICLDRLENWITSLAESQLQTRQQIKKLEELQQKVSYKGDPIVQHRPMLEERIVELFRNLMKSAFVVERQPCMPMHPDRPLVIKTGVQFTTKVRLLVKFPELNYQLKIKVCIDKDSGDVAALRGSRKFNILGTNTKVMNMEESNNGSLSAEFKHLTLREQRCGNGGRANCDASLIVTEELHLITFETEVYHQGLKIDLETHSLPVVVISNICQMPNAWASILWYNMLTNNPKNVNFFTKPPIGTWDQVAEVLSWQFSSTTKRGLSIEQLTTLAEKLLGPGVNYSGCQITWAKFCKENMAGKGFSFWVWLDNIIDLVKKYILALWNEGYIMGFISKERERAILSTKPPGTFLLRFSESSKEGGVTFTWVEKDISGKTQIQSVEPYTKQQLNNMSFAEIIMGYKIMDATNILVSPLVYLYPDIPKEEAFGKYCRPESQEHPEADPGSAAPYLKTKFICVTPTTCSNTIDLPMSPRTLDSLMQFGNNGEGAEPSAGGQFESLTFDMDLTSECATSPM

[3] = biological target: mouse STAT3 (endogenous in GT1-7 cells and VSMC, or expressed from mouse STAT3 pcDNA3 in HEK293 cells), P42227
Chain of mouse STAT3 (endogenous in GT1-7 cells and VSMC, or expressed from mouse STAT3 pcDNA3 in HEK293 cells), P42227 (P42227 2-770): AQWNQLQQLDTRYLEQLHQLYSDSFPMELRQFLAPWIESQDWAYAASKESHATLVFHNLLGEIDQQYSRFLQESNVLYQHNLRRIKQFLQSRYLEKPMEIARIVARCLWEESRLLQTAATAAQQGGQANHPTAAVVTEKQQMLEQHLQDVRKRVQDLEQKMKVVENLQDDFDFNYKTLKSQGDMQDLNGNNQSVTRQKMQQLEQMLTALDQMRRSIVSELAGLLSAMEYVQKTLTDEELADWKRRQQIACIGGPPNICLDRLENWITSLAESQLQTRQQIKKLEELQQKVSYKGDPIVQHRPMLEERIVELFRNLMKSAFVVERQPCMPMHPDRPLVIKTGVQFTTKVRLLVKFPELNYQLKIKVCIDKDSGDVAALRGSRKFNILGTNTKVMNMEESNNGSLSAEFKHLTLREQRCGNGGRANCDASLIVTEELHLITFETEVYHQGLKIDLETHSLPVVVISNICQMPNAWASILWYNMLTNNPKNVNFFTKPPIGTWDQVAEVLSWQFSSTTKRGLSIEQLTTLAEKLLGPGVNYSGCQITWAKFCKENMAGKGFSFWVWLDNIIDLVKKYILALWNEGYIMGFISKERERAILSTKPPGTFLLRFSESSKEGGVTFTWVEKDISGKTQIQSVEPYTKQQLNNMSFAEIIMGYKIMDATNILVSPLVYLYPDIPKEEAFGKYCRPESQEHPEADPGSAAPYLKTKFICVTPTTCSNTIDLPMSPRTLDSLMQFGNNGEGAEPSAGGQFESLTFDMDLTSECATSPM

Protein | in vitro methylation with [3H]-AdoMet, MEF extracts as the enzyme source [1] | in vitro methylation with [3H]-AdoMet, MEF extracts as the enzyme source [2] | leptin-induced Stat3 methylation in VSMC (anti-Stat3 immunoprecipitation, immunoblot with α-metR antibody) [3] | in vitro methylation with [3H]-AdoMet [2]
B1 | This mutation resulted in substantially no methylation of Stat3 (FIG. 20B, lane 3) | Cell extracts from wild-type MEFs were also capable of methylating GST-Stat3, whereas cell extracts from PRMT2^-/- cells abolished Stat3 methylation (FIG. 20B, lanes 2 and 4) | leptin (100 nM) evoked a transient methylation of Stat3 at 10 min in wild-type VSMC (FIG. 22D, lane 2-5), whereas increased Stat3 methylation was not observed in PRMT2^-/- cells (FIG. 22D, lane 6-9) | –
B2 | – | – | – | Flag fusion protein from the cells transfected wild-type PRMT2-Flag cDNA could methylate GST-Stat3
